Measurements from patent US20160159919A1 (Chugai, published 2016).

Biological target: T1, soluble human EREG fragment having a mature EGF domain structure (R&D Systems cat. no. 1195-EP/CF) (human, UniProt O14944 63-108)
T1 construct: bought; coated on ELISA plates; also called human epiregulin; recombinant human Epiregulin
Assay: competitive ELISA on coated soluble human EREG fragment
Method: The soluble human EREG fragment having a mature EGF domain structure (the polypeptide of SEQ ID NO: 34 which corresponds to ⁶³Val to ¹⁰⁸Leu) was purchased from R&D Systems (cat. no. 1195-EP/CF). The soluble human EREG fragment was used to coat nunc immunoplates, and after blocking with a BSA-containing solution, the competitive binding reactivity between mouse hybridoma-derived EP27 and the purified humanized anti-EREG antibody was analyzed. Mouse hybridoma-derived EP27 and a purified humanized anti-EREG antibody were added to the plates, and after two hours of incubation, the plates were washed; and an alkaline phosphatase-labeled anti-human IgG antibody (Zymed) was added to each well of the plates and then allowed to react. Each well was washed, and then the amount of bound antibody (A405/655 detection value) was determined by addition of a test reagent, Sigma p-Nitrophenyl phosphate Tablets.

T1 sequence (O14944 63-108 limits assumed): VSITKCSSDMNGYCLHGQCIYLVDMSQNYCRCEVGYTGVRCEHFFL

Binder	binding result
H3-G1d/LB-k (antibody, human IgG1, kappa, V domains shown) VH: QDQLVQSGAEVKKPGASVKVSCKASGFNIKDTYIQWVRQAPGQGLEWMGRIDPLNGNTKYVDKFQGRVTITADTSTNTAYMELSSLRSEDTAVYYCVRSGTLFDFWGQGTLVTVSS VL: DIQMTQSPSSLSASVGDRVTITCKASQDIHKYIAWYQQKPGQAPRLLIQYTSTLQPGVPSRFSGSGSGTDYTFTISSLQPEDIATYYCLQYDNLRTFGGGTKVEIKR	binds
H40-G1d/LB-k (antibody, human IgG1, kappa, V domains shown, also called H40-G1/LB-k) VH: QDQLVQSGAEVKKPGASVKVSCKASGFNIKDTYIQWVRQAPGQGLEWMGRIDPLNGQTKYVPKFQGRVTITADTSTNTAYMELSSLRSEDTAVYYCVRSGTLFDFWGQGTLVTVSS VL: DIQMTQSPSSLSASVGDRVTITCKASQDIHKYIAWYQQKPGQAPRLLIQYTSTLQPGVPSRFSGSGSGTDYTFTISSLQPEDIATYYCLQYDNLRTFGGGTKVEIKR	binds
H5-G1d/LB-k (antibody, human IgG1, kappa, V domains shown) VH: QDQLVQSGAEVKKPGASVKVSCKASGFNIKDTYIQWVRQAPGQGLEWMGRIDPLNGNTKYVPSFQGRVTITADTSTNTAYMELSSLRSEDTAVYYCVRSGTLFDFWGQGTLVTVSS VL: DIQMTQSPSSLSASVGDRVTITCKASQDIHKYIAWYQQKPGQAPRLLIQYTSTLQPGVPSRFSGSGSGTDYTFTISSLQPEDIATYYCLQYDNLRTFGGGTKVEIKR	binds
H61-G1d/LB-k (antibody, human IgG1, kappa, V domains shown, also called H61-G1/LB-k) VH: QDQLVQSGAEVKKPGASVKVSCKASGFNIKDTYIQWVRQAPGQGLEWMGRIDPLKGNTKYVPKFQGRVTITADTSTNTAYMELSSLRSEDTAVYYCVRSGTLFDFWGQGTLVTVSS VL: DIQMTQSPSSLSASVGDRVTITCKASQDIHKYIAWYQQKPGQAPRLLIQYTSTLQPGVPSRFSGSGSGTDYTFTISSLQPEDIATYYCLQYDNLRTFGGGTKVEIKR	binds
H6-G1d/LB-k (antibody, human IgG1, kappa, V domains shown) VH: QDQLVQSGAEVKKPGASVKVSCKASGFNIKDTYIQWVRQAPGQGLEWMGRIDPLNGNTKYVPQFQGRVTITADTSTNTAYMELSSLRSEDTAVYYCVRSGTLFDFWGQGTLVTVSS VL: DIQMTQSPSSLSASVGDRVTITCKASQDIHKYIAWYQQKPGQAPRLLIQYTSTLQPGVPSRFSGSGSGTDYTFTISSLQPEDIATYYCLQYDNLRTFGGGTKVEIKR	binds
H42-G1d/LB-k (antibody, human IgG1, kappa, V domains shown) VH: QDQLVQSGAEVKKPGASVKVSCKASGFNIKDTYIQWVRQAPGQGLEWMGRIDPLNGNTKYKPKFQGRVTITADTSTNTAYMELSSLRSEDTAVYYCVRSGTLFDFWGQGTLVTVSS VL: DIQMTQSPSSLSASVGDRVTITCKASQDIHKYIAWYQQKPGQAPRLLIQYTSTLQPGVPSRFSGSGSGTDYTFTISSLQPEDIATYYCLQYDNLRTFGGGTKVEIKR	binds
H7-G1d/LB-k (antibody, human IgG1, kappa, V domains shown) VH: QDQLVQSGAEVKKPGASVKVSCKASGFNIKDTYIQWVRQAPGQGLEWMGRIDPLNGNTKYVPKFDGRVTITADTSTNTAYMELSSLRSEDTAVYYCVRSGTLFDFWGQGTLVTVSS VL: DIQMTQSPSSLSASVGDRVTITCKASQDIHKYIAWYQQKPGQAPRLLIQYTSTLQPGVPSRFSGSGSGTDYTFTISSLQPEDIATYYCLQYDNLRTFGGGTKVEIKR	binds
H66-G1d/LB-k (antibody, human IgG1, kappa, V domains shown, also called H66-G1/LB-k) VH: QDQLVQSGAEVKKPGASVKVSCKASGFNIKDTYIQWVRQAPGQGLEWMGRIDPLVGNTKYVPKFQGRVTITADTSTNTAYMELSSLRSEDTAVYYCVRSGTLFDFWGQGTLVTVSS VL: DIQMTQSPSSLSASVGDRVTITCKASQDIHKYIAWYQQKPGQAPRLLIQYTSTLQPGVPSRFSGSGSGTDYTFTISSLQPEDIATYYCLQYDNLRTFGGGTKVEIKR	binds
H10-G1d/LB-k (antibody, human IgG1, kappa, V domains shown) VH: QDQLVQSGAEVKKPGASVKVSCKASGFNIKDTYIQWVRQAPGQGLEWMGRIDPLNGNTKYVPKFQERVTITADTSTNTAYMELSSLRSEDTAVYYCVRSGTLFDFWGQGTLVTVSS VL: DIQMTQSPSSLSASVGDRVTITCKASQDIHKYIAWYQQKPGQAPRLLIQYTSTLQPGVPSRFSGSGSGTDYTFTISSLQPEDIATYYCLQYDNLRTFGGGTKVEIKR	binds
H44-G1d/LB-k (antibody, human IgG1, kappa, V domains shown) VH: QDQLVQSGAEVKKPGASVKVSCKASGFNIKDTYIQWVRQAPGQGLEWMGRIDPLNGNTKYSPKFQGRVTITADTSTNTAYMELSSLRSEDTAVYYCVRSGTLFDFWGQGTLVTVSS VL: DIQMTQSPSSLSASVGDRVTITCKASQDIHKYIAWYQQKPGQAPRLLIQYTSTLQPGVPSRFSGSGSGTDYTFTISSLQPEDIATYYCLQYDNLRTFGGGTKVEIKR	binds
H43-G1d/LB-k (antibody, human IgG1, kappa, V domains shown) VH: QDQLVQSGAEVKKPGASVKVSCKASGFNIKDTYIQWVRQAPGQGLEWMGRIDPLNGNTKYRPKFQGRVTITADTSTNTAYMELSSLRSEDTAVYYCVRSGTLFDFWGQGTLVTVSS VL: DIQMTQSPSSLSASVGDRVTITCKASQDIHKYIAWYQQKPGQAPRLLIQYTSTLQPGVPSRFSGSGSGTDYTFTISSLQPEDIATYYCLQYDNLRTFGGGTKVEIKR	binds
H67-G1d/LB-k (antibody, human IgG1, kappa, V domains shown, also called H67-G1/LB-k) VH: QDQLVQSGAEVKKPGASVKVSCKASGFNIKDTYIQWVRQAPGQGLEWMGRIDPLLGNTKYVPKFQGRVTITADTSTNTAYMELSSLRSEDTAVYYCVRSGTLFDFWGQGTLVTVSS VL: DIQMTQSPSSLSASVGDRVTITCKASQDIHKYIAWYQQKPGQAPRLLIQYTSTLQPGVPSRFSGSGSGTDYTFTISSLQPEDIATYYCLQYDNLRTFGGGTKVEIKR	binds
H65-G1d/LB-k (antibody, human IgG1, kappa, V domains shown, also called H65-G1/LB-k) VH: QDQLVQSGAEVKKPGASVKVSCKASGFNIKDTYIQWVRQAPGQGLEWMGRIDPLFGNTKYVPKFQGRVTITADTSTNTAYMELSSLRSEDTAVYYCVRSGTLFDFWGQGTLVTVSS VL: DIQMTQSPSSLSASVGDRVTITCKASQDIHKYIAWYQQKPGQAPRLLIQYTSTLQPGVPSRFSGSGSGTDYTFTISSLQPEDIATYYCLQYDNLRTFGGGTKVEIKR	binds
H9-G1d/LB-k (antibody, human IgG1, kappa, V domains shown) VH: QDQLVQSGAEVKKPGASVKVSCKASGFNIKDTYIQWVRQAPGQGLEWMGRIDPLNGNTKYVPKFQDRVTITADTSTNTAYMELSSLRSEDTAVYYCVRSGTLFDFWGQGTLVTVSS VL: DIQMTQSPSSLSASVGDRVTITCKASQDIHKYIAWYQQKPGQAPRLLIQYTSTLQPGVPSRFSGSGSGTDYTFTISSLQPEDIATYYCLQYDNLRTFGGGTKVEIKR	binds
H25-G1d/LB-k (antibody, human IgG1, kappa, V domains shown) VH: QDQLVQSGAEVKKPGASVKVSCKASGFNIKDTYIQWVRQAPGQGLEWMGRIDPLNGNTKYVPKFQGRVTITADTSTNTAYMELSSLRSEDTAVYYCVRSGTSFDFWGQGTLVTVSS VL: DIQMTQSPSSLSASVGDRVTITCKASQDIHKYIAWYQQKPGQAPRLLIQYTSTLQPGVPSRFSGSGSGTDYTFTISSLQPEDIATYYCLQYDNLRTFGGGTKVEIKR	binds
H23-G1d/LB-k (antibody, human IgG1, kappa, V domains shown, also called H23-G1/LB-k) VH: QDQLVQSGAEVKKPGASVKVSCKASGFNIKDTYIQWVRQAPGQGLEWMGRIDPLNGSTKYVPKFQGRVTITADTSTNTAYMELSSLRSEDTAVYYCVRSGTLFDFWGQGTLVTVSS VL: DIQMTQSPSSLSASVGDRVTITCKASQDIHKYIAWYQQKPGQAPRLLIQYTSTLQPGVPSRFSGSGSGTDYTFTISSLQPEDIATYYCLQYDNLRTFGGGTKVEIKR	binds
H57-G1d/LB-k (antibody, human IgG1, kappa, V domains shown, also called H57-G1/LB-k) VH: QDQLVQSGAEVKKPGASVKVSCKASGFNIKDTYIQWVRQAPGQGLEWMGRIDPLTGNTKYVPKFQGRVTITADTSTNTAYMELSSLRSEDTAVYYCVRSGTLFDFWGQGTLVTVSS VL: DIQMTQSPSSLSASVGDRVTITCKASQDIHKYIAWYQQKPGQAPRLLIQYTSTLQPGVPSRFSGSGSGTDYTFTISSLQPEDIATYYCLQYDNLRTFGGGTKVEIKR	binds
H41-G1d/LB-k (antibody, human IgG1, kappa, V domains shown) VH: QDQLVQSGAEVKKPGASVKVSCKASGFNIKDTYIQWVRQAPGQGLEWMGRIDPLNGNTKYHPKFQGRVTITADTSTNTAYMELSSLRSEDTAVYYCVRSGTLFDFWGQGTLVTVSS VL: DIQMTQSPSSLSASVGDRVTITCKASQDIHKYIAWYQQKPGQAPRLLIQYTSTLQPGVPSRFSGSGSGTDYTFTISSLQPEDIATYYCLQYDNLRTFGGGTKVEIKR	binds
H45-G1d/LB-k (antibody, human IgG1, kappa, V domains shown) VH: QDQLVQSGAEVKKPGASVKVSCKASGFNIKDTYIQWVRQAPGQGLEWMGRIDPLNGNTKYTPKFQGRVTITADTSTNTAYMELSSLRSEDTAVYYCVRSGTLFDFWGQGTLVTVSS VL: DIQMTQSPSSLSASVGDRVTITCKASQDIHKYIAWYQQKPGQAPRLLIQYTSTLQPGVPSRFSGSGSGTDYTFTISSLQPEDIATYYCLQYDNLRTFGGGTKVEIKR	binds
H8-G1d/LB-k (antibody, human IgG1, kappa, V domains shown) VH: QDQLVQSGAEVKKPGASVKVSCKASGFNIKDTYIQWVRQAPGQGLEWMGRIDPLNGNTKYVPKFEGRVTITADTSTNTAYMELSSLRSEDTAVYYCVRSGTLFDFWGQGTLVTVSS VL: DIQMTQSPSSLSASVGDRVTITCKASQDIHKYIAWYQQKPGQAPRLLIQYTSTLQPGVPSRFSGSGSGTDYTFTISSLQPEDIATYYCLQYDNLRTFGGGTKVEIKR	binds
H31-G1d/LB-k (antibody, human IgG1, kappa, V domains shown) VH: QDQLVQSGAEVKKPGASVKVSCKASGFNIKDTYIQWVRQAPGQGLEWMGRIDPLNGNTKYVEKFEGRVTITADTSTNTAYMELSSLRSEDTAVYYCVRSGTLFDFWGQGTLVTVSS VL: DIQMTQSPSSLSASVGDRVTITCKASQDIHKYIAWYQQKPGQAPRLLIQYTSTLQPGVPSRFSGSGSGTDYTFTISSLQPEDIATYYCLQYDNLRTFGGGTKVEIKR	binds
